Experimental findings from the supplement of paper PMC10126150 are described below.

± gives the standard deviation of the averaged measurements.

The subject of the data set is ATP. Description: switch fluorescence ratio, 500 uM ATP over buffer (Cy3 cluster intensity, sum of 5 cycles each) (fold (ratio)); higher = stronger signal-on switching upon ATP binding; sequences stand for … in TCGTCGGCAGCGTCAGATGTGTATAAGAGACAGTTTTTTTTTTTTTTTTTTTTTTTTT…TC. To be noted: aptamer strand: ATP DNA aptamer (quencher-CACCTGGGGGAGTATTGCGGAGGAAGG + anchor), 100 nM annealed; ATP concentration: 500 uM. In a few lines: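 Switching-strand clusters labelled with Cy3 on a modified Illumina MiSeq flow-cell were annealed to 100 nM quencher-labelled ATP aptamer, imaged in selection buffer, and re-imaged after 15 min with 500 uM ATP at 22 °C. This was done over five cycles with NaOH stripping and re-annealing in between. The fluorescence ratio is summed target-cycle over summed buffer-cycle Cy3 intensity per cluster, averaged per switch-domain sequence, excluding clusters outside 100-1000 RFU.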
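Note: ATP exposure 15 min at 22 °C before imaging.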

In the case of GAATGTCGGG, the switch fluorescence ratio turned out to be 0.97965 ± 8.2e-05.
Consider TGGTTAAATC, for which the switch fluorescence ratio came out at 1.03 ± 0.019.
Then TGGGTTAGTA, with 0.984 ± 0.015.
Consider GGTTTTTGTG, for which the switch fluorescence ratio is 1.01 ± 0.034.
In the case of AATAAGAAGG it was 0.999 ± 0.013.
Take ATATGGCACT: the switch fluorescence ratio was 1.008 ± 0.0034.
In the case of GTATCCTATA it was 1 ± 0.017; in that of CGAGTTTTCG, 1 ± 0.03; in that of TTCTGCGGGG, 1.04 ± 0.046.
Turning to TTTTGCATTG, the switch fluorescence ratio is 1.07 ± 0.058.
Regarding GTTAATATAG, the switch fluorescence ratio was determined as 0.992 ± 0.035.
Then TTTTAAATGG, with 1.06 ± 0.052.
In the case of TTCCCTTTGG it was 1.01 ± 0.041; in that of ATGGAGCTAC, 4.67 ± 1.3; in that of CTGTTAGGAT, 0.99 ± 0.028.
For the sequence AGTATAGGGA, the switch fluorescence ratio was 1.011 ± 0.01.
In the case of TTATAGTGTT it was 0.994 ± 0.012.
In the case of GCGAGTGTGT it was 0.984 ± 0.029.
Then TTGAGAAAGT, with 1.47 ± 0.68.
For the sequence TTTGGGATCG, the switch fluorescence ratio came to 0.98 ± 0.045.
Then TTTTTATGAT, with 0.983 ± 0.022; and TAGTCTGCGT, with 1.04 ± 0.037; and TTAATACTTG, with 1.03 ± 0.018.
In the case of TTTATAGTGC it was 1.01 ± 0.027.
Take GGGTTTAGTG: the switch fluorescence ratio stood at 0.962 ± 0.014.
As to TTTTTTTAGA, the switch fluorescence ratio was 0.995 ± 0.022.
As for GTTCGGGTTG, the switch fluorescence ratio was found to be 0.988 ± 0.027.
Then GGGGAAAGTC, with 1 ± 0.032; and TTTTGGTATA, with 1.05 ± 0.055; and ACTTGTGTAA, with 1.018 ± 0.0021.
Then AGGTGTTATT, with 1.005 ± 0.0074; and TAAATAGTGG, with 0.987 ± 0.013.
GTTTTACGGA: the switch fluorescence ratio amounted to 1.003 ± 0.0065.
In the case of ATTGGGCAGG, the switch fluorescence ratio amounted to 1.04 ± 0.017.
As to TAACGAACGC, the switch fluorescence ratio worked out at 1.65 ± 0.086.
As to CTAGGGGGTG, the switch fluorescence ratio was determined as 1.03 ± 0.062.
In the case of TTTATCAGAC it was 1.07 ± 0.059.
In the case of TTTGAGTTGT, the switch fluorescence ratio amounted to 0.962 ± 0.035.
In the case of CTAGTCAAGA it was 1.027 ± 0.0066; in that of CTTAGTGGGG, 0.962 ± 0.048; in that of AGTTAGGGGC, 0.995 ± 0.053.
On to CGTGGTTAGT, for which the switch fluorescence ratio is 0.964 ± 0.023.
As for CGTGCTTTTT, the switch fluorescence ratio is 1.01 ± 0.018.
For CAGGACACCT, the switch fluorescence ratio is 1.17 ± 0.034.
In the case of TTTGACGCGC it was 1.16 ± 0.13.
As for GATTTGGAGT, the switch fluorescence ratio is 0.985 ± 0.018.
Take TTTTGCGATT: the switch fluorescence ratio was determined as 1.015 ± 0.0065.
In the case of AAAAAAAAGC, the switch fluorescence ratio came out at 1.03 ± 0.038.
For TTAGAGTATG, the switch fluorescence ratio is 1.0206 ± 0.0007.
CGATTAGTCT: the switch fluorescence ratio was found to be 0.9951 ± 0.0021.
As to CAGAAATTGG, the switch fluorescence ratio amounted to 1.013 ± 0.01.
Consider CCGCGTCTGT, for which the switch fluorescence ratio came out at 1.24 ± 0.032.
In the case of GCTATTGGAT it was 1.01 ± 0.02; in that of CAGTATGGTA, 1 ± 0.012; in that of CAGAACTGCG, 1.01 ± 0.015.
Then ACGGTTCGGA, with 1.02 ± 0.019; and TTGATGTTCG, with 0.976 ± 0.015.
In the case of TACGGGACGC it was 1.12 ± 0.047.
As to GTTTGAAGGG, the switch fluorescence ratio is 0.974 ± 0.05.
Take GATGTTGCGT: the switch fluorescence ratio worked out at 1.018 ± 0.004.
Take ACTATTAATC: the switch fluorescence ratio came to 1 ± 0.02.
Then TGGGTAACTT, with 1.1 ± 0.18; and CTAATTCGAG, with 0.9919 ± 0.0026; and CAGTTTTGGC, with 1.01 ± 0.025.
In the case of GGGGCTTACG it was 0.9893 ± 0.0087; in that of AGGGACGTAG, 1.05 ± 0.026; in that of TTTATTTTTT, 1 ± 0.039.
In the case of TAAATTGATA it was 0.9924 ± 0.0055.
Consider AGGCATTTTA, for which the switch fluorescence ratio was 0.983 ± 0.053.
For the sequence AATCGGCGCT, the switch fluorescence ratio came to 1.01 ± 0.045.
In the case of GGGAAACTTG it was 0.988 ± 0.017; in that of CAATGCGGGG, 1.01 ± 0.023; in that of TTCGTTATTG, 1.02 ± 0.026.
In the case of AGTTGTTTGG it was 1 ± 0.025; in that of CGGGCGTTGT, 1 ± 0.04.
In the case of TATAAGTGAG it was 1.02 ± 0.037; in that of GGGGTGGTAG, 1.01 ± 0.012.
As for CGGGGAGGGT, the switch fluorescence ratio was determined as 0.967 ± 0.015.
With TTAATAATAA, the switch fluorescence ratio came out at 1 ± 0.034.
Consider CCTATACAAC, for which the switch fluorescence ratio was found to be 1.11 ± 0.044.
In the case of CCTGGCAGAG it was 1.22 ± 0.048.
Turning to GGGGCTATGT, the switch fluorescence ratio is 1.08 ± 0.14.
In the case of CATTTTCGGC it was 1.01 ± 0.039; in that of TAGAAGCCCC, 1.09 ± 0.039.
In the case of TGAGTGACG, the switch fluorescence ratio turned out to be 1.0136 ± 0.00054.
On to TAGCTGTTTT, for which the switch fluorescence ratio was 1.02 ± 0.02.
With TACCCCCGTT, the switch fluorescence ratio is 1.36 ± 0.041.
Regarding ACGGGCTTCG, the switch fluorescence ratio was 1.05 ± 0.049.
Consider CCTCAGGGAA, for which the switch fluorescence ratio was determined as 1.2 ± 0.14.
As for AAGCGTTGAG, the switch fluorescence ratio was 1.009 ± 0.0045.
As to GTGGGATCTG, the switch fluorescence ratio turned out to be 0.9894 ± 0.008.
Take TCGGGGATCA: the switch fluorescence ratio is 0.9752 ± 0.0058.
AAAGGGGTTG: the switch fluorescence ratio came to 1.01 ± 0.072.
For the sequence GGCCTGTGTG, the switch fluorescence ratio was 1.02 ± 0.041.
In the case of TTAGGACTT it was 1.02 ± 0.073.
Take CGGATGAGGA: the switch fluorescence ratio came to 0.984 ± 0.01.
Regarding GGTTAAGTGT, the switch fluorescence ratio was determined as 1.01 ± 0.021.
For GGCGCCGTTG, the switch fluorescence ratio came out at 0.978 ± 0.019.
As to GACTGCATCG, the switch fluorescence ratio was 1.03 ± 0.015.
In the case of GGCTTAATGG it was 1.01 ± 0.023; in that of TTGGGTGTCT, 0.988 ± 0.057.
Turning to AACGGTCTTT, the switch fluorescence ratio amounted to 0.997 ± 0.014.
In the case of ATGCTGTTGC, the switch fluorescence ratio amounted to 0.9631 ± 0.0065.
In the case of AAGTTTTCGC, the switch fluorescence ratio worked out at 0.9789 ± 0.0067.
Then AGAGATCCGG, with 0.981 ± 0.018; and TGGGGCTTTT, with 1.02 ± 0.053.
As to CTTGTCATCT, the switch fluorescence ratio was 1.005 ± 0.0061.
For the sequence CTGGGGAGGG, the switch fluorescence ratio is 1 ± 0.048.
Regarding GAGAAAGGCT, the switch fluorescence ratio was 0.97 ± 0.019.
In the case of AGGGGCAGGG it was 0.932 ± 0.081.
As for TTAATTCTGG, the switch fluorescence ratio was determined as 0.9976 ± 0.0034.
Turning to GGTGAAGGCA, the switch fluorescence ratio stood at 1 ± 0.023.
On to GGGCAGATGG, for which the switch fluorescence ratio stood at 0.988 ± 0.034.
As to ATTCCGCCGA, the switch fluorescence ratio turned out to be 1.48 ± 0.08.
On to TAGGAAGGCA, for which the switch fluorescence ratio was 0.967 ± 0.0024.
In the case of CGGGTCTTGC, the switch fluorescence ratio was 0.981 ± 0.035.
In the case of AAGATTTGGG it was 0.991 ± 0.027.
In the case of ATATGCAGGG it was 0.993 ± 0.00024; in that of TAAAAGGTCC, 1.04 ± 0.038; in that of GTGATAGTAA, 1.006 ± 0.0099.
